What was measured:
[1] = target: NrnC from Bartonella henselae (Bartonella henselae); assay: SEC-MALS; 1-2 mg/ml (~40-80 uM) protein injected on Superdex 200 Increase 10/300 GL in 25 mM HEPES-NaOH, 150 mM NaCl pH 7.5, room temperature
[2] = target: the molecule itself; assay: as above

NrnC from Bartonella henselae (enzyme) gave a stoichiometry N [1] of 8.

B1: NrnC homolog from Okeania (Cyanobacteria) (enzyme)
chain: MSDFQVCDRDLTEAILSDYLQADSIAVDTETMGLLPWRDRLCLVQLCDAQGKVTAIRIEKGQQEAPNLKQLMEATGIVKIFHFARFDVAMLQHHLDIKVSPIFCTKIASKLARTYTGKHGLKDLVMELEKVELDKSAQSSDWGNAENLTEEQLSYAANDVRYLLSVKEKLIKMLKREERWELAQQCFECLPVFVGLDLLQYKDIFEH
For B1, the “stoichiometry N” value [2] was 8.
